Positions count from the first letter of the chain named.
T1: human EpCAM protein (human, UniProt P16422 24-265)
T1 construct: biotinylated in the Octet assays; also called hu EpCAM; biotinylated human EpCAM protein
T1 sequence (looked up): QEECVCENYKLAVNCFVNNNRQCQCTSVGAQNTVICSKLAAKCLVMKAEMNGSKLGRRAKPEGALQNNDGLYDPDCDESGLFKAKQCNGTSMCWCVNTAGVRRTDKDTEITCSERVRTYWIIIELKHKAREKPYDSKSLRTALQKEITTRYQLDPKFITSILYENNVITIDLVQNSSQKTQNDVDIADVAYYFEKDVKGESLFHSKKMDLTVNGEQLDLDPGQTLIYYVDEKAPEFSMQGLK

B1: Llama anti-EpCAM single domain antibody EPL152 (VHH)
VHH: QVQLQESGGGLVQAGGSLRLSCVHSGSIFRASTMAWYRQAPGKQRELVAQIMSGGGTNYAGSVKGRFTISRDNANNTVYLQMNSLKPEDTAVYYCNAAQITSWGPKVYWGQGTQVTVSS
notes: E. coli periplasmic extract
B2: Llama anti-EpCAM single domain antibody EPL189 (VHH)
VHH: QVQLQESGGGLVQPGGSLRLSCAASGRINSINTMGWYRQAPGNQRELVAEITRGGTTNYADSVQGRYAISRDNAKNLVYLQMNSLKPEDTDVYYCNAQTFPTFSRPTGLDYWGQGTQVTVSS
notes: E. coli periplasmic extract
B3: Llama anti-EpCAM single domain antibody EPL117 (VHH)
VHH: QVQLQESGGGLVQAGGSLRLSCAASGNIVRMTNMAWYRQAPGKQREFVATISAGGSTTYVDSVKDRFTISRDNTKNTVYLQMNYLKPEDTAVYYCATGSILTNRGAIPGSWGHGTQVTVSS
notes: E. coli periplasmic extract
B4: Llama anti-EpCAM single domain antibody EPL74 (VHH)
VHH: QVQLQESGGGLVQAGGSLRLSCAASGSIFGINAMGWYRQAPGKQRESVAFITIGGNTNYLDSVKGRFTISRDNAKNTVYLQMNGLKPEDTAVYYCNTNPPLILTAGGLYWGQGTQVTVSS
notes: E. coli periplasmic extract
B5: Llama anti-EpCAM single domain antibody EPL145 (VHH)
VHH: QVQLQESGGGLVQAGGSLRLSCAASGFIFRAASMGWFRQSPGNERELVATVSSGGFTNYADSVKGRFTISRDNAKNTVYLQMNSLKPEDTAVYFCGATFVRSDGHHTIYGQGTQVTVSS
notes: E. coli periplasmic extract
B6: Llama anti-EpCAM single domain antibody EPL126 (VHH)
VHH: B5 VHH with F37Y, V51I, S52N, V78G, G96A, V100L, H105Q, H106P, T107P, Y109W
notes: E. coli periplasmic extract
B7: Llama anti-EpCAM single domain antibody EPL118 (VHH)
VHH: B5 VHH with G55D
notes: E. coli periplasmic extract
B8: Llama anti-EpCAM single domain antibody EPL138 (VHH)
VHH: B5 VHH with G35D, F37Y, S40F, L47S, V48I, V51I, V100L, Y109N
notes: E. coli periplasmic extract
B9: Llama anti-EpCAM single domain antibody EPL90 (VHH)
VHH: B5 VHH with G35A, F37Y, T50S, V51I, G55A, G65A, V100L, Y109N
notes: E. coli periplasmic extract
B10: Llama anti-EpCAM single domain antibody EPL164 (VHH)
VHH: QVQLQESGGGLVQAGGSLRLSCAASGFIFRAASMDWYRQSPGTQPELVATISSTGFTNYANSVKGRFTISRDNAKNTVYLQMNSLKPEDTAVYFCGATFLRSDGQHSIYGQGTQVTVSS
notes: E. coli periplasmic extract
B11: Llama anti-EpCAM single domain antibody EPL83 (VHH)
VHH: QVQLQESGGGLVQAGGSLRLSCAVSGSIFSLNTLAWYRQAPGRQRDLIARITGGGTTVYADSVKGRFTISRDNAKNTVYLQMNSLKPEDTAVYYCNLMVRHPSGSTYEYWGQGTQVTVSS
notes: E. coli periplasmic extract
B12: Llama anti-EpCAM single domain antibody EPL127 (VHH)
VHH: QVQLQESGGGLVQAGGSLRLSCAAPGFAFNDHAILWFRQAPGKEREGVSEICRDGTTYYTDSVKGRFTISSDNAKNTVYLQMNSVKTDDTAVYYCAVDRRRYYCSGNRAFSSDYYYWGQGTQVTVSS
notes: E. coli periplasmic extract
B13: Llama anti-EpCAM single domain antibody EPL97 (VHH)
VHH: QVQLQESGGGLVQAGGSLRLSCAASGIIFRGTTMGWFRQAPGKQRESVASISPLGTTSYSGSVEGRFTVSRDNAKNTLFLQMNSLKSEDTAVYYCNAIQVTNVGPRVYWGQGTQVTVSS
notes: E. coli periplasmic extract
B14: Llama anti-EpCAM single domain antibody EPL10 (VHH)
VHH: QVQLQESGGGLVQAGGSLRLSCAASGSVFRANVMGWYRQAPGKQHELVARIDPGGTTTYADPVKGRFTISRDNAKKTVYLQMNSLKPDDTAVYYCNAIILLSGGPKDYWGQGTQVTVSS
notes: E. coli periplasmic extract
B15: Llama anti-EpCAM single domain antibody EPL2 (VHH)
VHH: QVQLQESGGGLVQPGGSLRLSCAASESISSFIAVGWYRQAPGKERELVAGINRSGFTYYTDSVKGRFSISRDNAKNTVLLQMTSLKPEDTAVYYCNAGGLYFSNAYTQGDYWGQGTQVTVSS
notes: E. coli periplasmic extract
B16: Llama anti-EpCAM single domain antibody EPL43 (VHH)
VHH: B15 VHH with P14T
notes: E. coli periplasmic extract
B17: Llama anti-EpCAM single domain antibody EPL78 (VHH)
VHH: QVQLQESGGGLVQPGGSLRLSCATSANRFNINVMGWYRQAPGQQRELVATINIGGSTDYADSVKGRFTISRDNAKNTVYLQLSDLKPEDTAVYYCNVKLRVSGPTGPNVYWGQGTQVTVSS
notes: E. coli periplasmic extract
B18: Llama anti-EpCAM single domain antibody EPL60 (VHH)
VHH: QVQLQESGGGLVQAGGSLRLSCAASEYILSMYRMAWYRQAPGKVRELVADMSSGGTTNYADFVKGRFTISRDNDRNTVYLQMNRLQPEDTAAYYCNVAGRTGPPSYDAFNNWGQGTQVTVSS
notes: E. coli periplasmic extract
B19: Llama anti-EpCAM single domain antibody EPL156 (VHH)
VHH: B18 VHH with A14P, G16A, L20V
notes: E. coli periplasmic extract
B20: Llama anti-EpCAM single domain antibody EPL31 (VHH)
VHH: QVQLQESGGGLVHTGGSLRLSCAASGDTFLRYAMGWFRQAPGKEREFVAAITWNGGNTDYAGSLKGRFTISRDNTKNTVYLQMNSLKPEDTAVYYCAADLTFGLASSHYQYDYWGQGTQVTVSS
notes: E. coli periplasmic extract
B21: Llama anti-EpCAM single domain antibody EPL82 (VHH)
VHH: QVQLQESGGGLVQAGGSLKLSCTASGTILSTMAWYRQAPGKQRELVATISRGGTTNYSDSVKGRFAISRDSTKNTVYLQMNSLKPEDTAVYYCNTPLTDYGMGYNWGQGTQVTVSS
notes: E. coli periplasmic extract
B22: Llama anti-EpCAM single domain antibody EPL109 (VHH)
VHH: QVQLQESGGGLVQPGGSLRLSCASSGFTLDDYTIGWFRQAPGKEREGVSCISRRDDSTYYADSVKGRFTISRDNAKNTVDLQMISLRPEDTAVYYCAATPRSYTLRCLGKFDFQGQGTQVTVSS
notes: E. coli periplasmic extract
B23: Llama anti-EpCAM single domain antibody EPL58 (VHH)
VHH: QVQLQESGGGLVQAGGSLRLSCAASGPIFSDTIRTMGWYRQAAGKQRELVATIASFPSRTNYVDSVKGRFTISRDIAKNTVYLQMDSLKPEDTAVYYCNVDLASIPTKTYWGQGTQVTVSS
notes: E. coli periplasmic extract
B24: Llama anti-EpCAM single domain antibody EPL49 (VHH)
VHH: QVQLQESGGGLVQAGGSLRLSCAPSGRTSSIFGMGWFRQAPGKEREFVASINWSGGSTSYADSVKGRFTISRDNAKNEMYLQMNSLKFEDTAVYVCAAAVLTNKPSWNFWGQGTQVTVSS
notes: E. coli periplasmic extract
B25: Llama anti-EpCAM single domain antibody EPL159 (VHH)
VHH: QVQLQESGGGLVQAGGSLRLSCAASGFAFGNHWMYWYRQAPGRGRELVASISSGGSTNYVDSVKGRFTISRDNARNTVYLQMYSLKPEDTAVYYCGTSDNWGQGTQVTVSS
notes: E. coli periplasmic extract

molecular target: T1, human EpCAM protein; test: colorimetric ELISA
Description: (§1) Llamas were immunized with purified EpCAM protein expressed in Expi293 cells. A phage display library for expression of heavy variable antibody domains was constructed from circulating B cells. See van der Linden, de Geus, Stok, Bos,van Wassenaar, Verrips, and Frenken. 2000. J Immunol Methods 240:185-195. Phage clones were screened for binding to EpCAM by expressing anti-EpCAM proteins in E coli, preparing periplasmic extracts, and proteins were screened for human and cynomolgus EpCAM binding activity using a colorimetric ELISA.

| ELISA absorbance | Human EpCAM/Control | Binder |
| --- | --- | --- |
| 3.4 absorbance | 4 ratio | B1 |
| 1.3 absorbance | 12 ratio | B2 |
| 0.9 absorbance | 4 ratio | B3 |
| 1.4 absorbance | 10 ratio | B4 |
| 0.6 absorbance | 3 ratio | B5 |
| 3.4 absorbance | 5 ratio | B6 |
| 3.4 absorbance | 5 ratio | B7 |
| 3.1 absorbance | 3 ratio | B8 |
| 1.6 absorbance | 10 ratio | B9 |
| 0.6 absorbance | 7 ratio | B10 |
| 2 absorbance | 3 ratio | B11 |
| 0.4 absorbance | 5 ratio | B12 |
| 2.5 absorbance | 8 ratio | B13 |
| 2.7 absorbance | 12 ratio | B14 |
| 2.2 absorbance | 15 ratio | B15 |
| 1.8 absorbance | 13 ratio | B16 |
| 3.1 absorbance | 17 ratio | B17 |
| 1.1 absorbance | 10 ratio | B18 |
| 3.6 absorbance | 16 ratio | B19 |
| 0.6 absorbance | 7 ratio | B20 |
| 0.9 absorbance | 4 ratio | B21 |
| 0.4 absorbance | 5 ratio | B22 |
| 1.1 absorbance | 8 ratio | B23 |
| 1.1 absorbance | 8 ratio | B24 |

molecular target: T2, cynomolgus EpCAM protein (cynomolgus monkey); test: colorimetric ELISA
T2 construct: biotinylated in the Octet assays; also called cy EpCAM; cynomolgus monkey EpCAM
T2 sequence (Q1WER1 24-265): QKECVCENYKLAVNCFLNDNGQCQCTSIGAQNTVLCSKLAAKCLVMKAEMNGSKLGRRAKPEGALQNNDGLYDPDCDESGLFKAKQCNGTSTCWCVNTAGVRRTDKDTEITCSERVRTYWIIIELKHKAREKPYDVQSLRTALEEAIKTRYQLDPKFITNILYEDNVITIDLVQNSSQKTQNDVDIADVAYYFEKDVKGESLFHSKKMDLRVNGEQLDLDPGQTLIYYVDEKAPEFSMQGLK
Description: as §1

| Cynomolgus EpCAM/Control | ELISA absorbance | Binder |
| --- | --- | --- |
| 4 ratio | 2.8 absorbance | B1 |
| 8 ratio | 0.9 absorbance | B2 |
| 3 ratio | 0.6 absorbance | B3 |
| 5 ratio | 0.7 absorbance | B4 |
| 2 ratio | 0.2 absorbance | B25 |
| 2 ratio | 0.4 absorbance | B5 |
| 4 ratio | 2.8 absorbance | B6 |
| 4 ratio | 2.9 absorbance | B7 |
| 3 ratio | 2.7 absorbance | B8 |
| 10 ratio | 1.7 absorbance | B9 |
| 34 ratio | 2.8 absorbance | B10 |
| 2 ratio | 1.1 absorbance | B11 |
| 11 ratio | 0.9 absorbance | B12 |
| 5 ratio | 1.7 absorbance | B13 |
| 9 ratio | 2 absorbance | B14 |
| 24 ratio | 3.6 absorbance | B15 |
| 27 ratio | 3.8 absorbance | B16 |
| 11 ratio | 2 absorbance | B17 |
| 33 ratio | 3.5 absorbance | B18 |
| 17 ratio | 4 absorbance | B19 |
| 6 ratio | 0.5 absorbance | B20 |
| 5 ratio | 1.1 absorbance | B21 |
| 2 ratio | 0.1 absorbance | B22 |
| 4 ratio | 0.5 absorbance | B23 |
| 4 ratio | 0.6 absorbance | B24 |
